Data from patent publication US20200131515.
pKd: −log10 of the molar value.

Experiments:
Experiment in all cases: SPR
[1] = tested on: H-LDL particle (small dense LDL); conditions: 5' disulfide, unit inferred
[2] = tested on: HDL particle (high-density lipoprotein); conditions: 5' disulfide; 100 nM HDL, selection buffer
[3] = tested on: LDL particle (low-density lipoprotein, apoB-containing), commercial; conditions: 5' disulfide
[4] = tested on: L-LDL particle (large fluffy LDL); conditions: 5' disulfide; unit inferred
[5] = 1 nM LDL added to 1% blood serum in selection buffer
[6] = 1 nM LDL, selection buffer, repeat on gold chip
[7] = aptamer on gold chip, unit inferred
[8] = printed kD differs from kd/ka of same row

Sequence	pKd [1]	pKd [2]	pKd [3, 5]	pKd [3, 6]	pKd [3, 7]	pKd [1, 8]	pKd [4]
AACTACATGGTATGTGGTGAACTAAACCATTCTTGTCTCGCATTTTTCTCTTTTATATTATTTGACGTACAATGTACCC [LDL-A38]	9.63	7.94	10.75	10.68	10.34		
AACTACATGGTATGTGGTGAACTAACCTTAATTTACCCTTGTTTTATCATTTCCATCATAGCTGACGTACAATGTACCC [LDL-A12]	10.64	8.14	10.33	10.97	10.30		
AACTACATGGTATGTGGTGAACTACCTCGATTTTATATTATTTCGCTTACCAACAACTGCAGAGACGTACAATGTACCC [LDL-A1]		8.05		11.77		8.91	10.49
AACTACATGGTATGTGGTGAACTCACGCGCATAACCCTTTTTTCACCTGCCCTTTTAACTAATGACGTACAATGTACCC [LDL-A274]		8.08	9.94	10.67	10.11	9.10	9.32
AACTACATGGTATGTGGTGAACTGTCAGCTTCTTCTATATAATTCACCTTGCCTCTCGTTCCTGACGTACAATGTACCC [LDL-A2]		8.01	11.29	10.82	10.38		10.80
